Data taken from article PMC10698503 (Molecular Systems Biology, 2023).
Non-standard residues stand in square brackets, D forms with d. No end group written: not given here. pS = N[C@@H](COP(=O)(O)O)C(=O)O

Assays:
His-PP1γ [1] = target: T1, His-PP1γ (UniProt P36873 1-323); assay: ITC; peptide (approximately 450 µM, syringe) titrated into PP1γ (~35 µM, cell); 25°C; 50 mM sodium phosphate, 150 mM NaCl, 0.5 mM TCEP, pH 7.5; single-site model; conditions: both partners purified
T1 construct: PP1γ, catalytic subunit of protein phosphatase 1, gamma isoform; D1:p17 gives a molecular weight of 36965 Da for PP1; also called PP1g
T1 sequence (P36873 whole entry, canonical isoform): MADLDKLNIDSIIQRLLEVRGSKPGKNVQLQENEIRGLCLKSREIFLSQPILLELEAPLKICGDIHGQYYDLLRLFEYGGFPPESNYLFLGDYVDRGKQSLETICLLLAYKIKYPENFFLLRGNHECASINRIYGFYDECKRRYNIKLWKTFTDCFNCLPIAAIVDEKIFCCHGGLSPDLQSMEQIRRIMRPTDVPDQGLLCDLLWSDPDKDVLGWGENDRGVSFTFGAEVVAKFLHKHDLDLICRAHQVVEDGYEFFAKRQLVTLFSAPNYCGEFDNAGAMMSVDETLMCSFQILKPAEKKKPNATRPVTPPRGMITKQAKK

His-PP1γ [2] = target: His-PP1γ (UniProt P36873 1-323); assay: as above; conditions: both partners purified
Target sequence in this assay (P36873 whole entry, canonical isoform): as above

| Binder | Kd (His-PP1γ [1]) [nM] | Kd (His-PP1γ [2]) [nM] |
| --- | --- | --- |
| PRRSPRISFFLEKENEPPGREW (Sororin (CDCA5) 76-96 by the label; also called CDCA5; source: synthetic peptide, bought: Peptide 2.0 Inc) [Sororin 76-96 peptide PRRSPRISFFLEKENEPPGREW] | 2530 ± 110 |  |
| RRSPRI[pS]FFLEKENEW [Sororin 73-91 pS83 peptide RRSPRI(pS)FFLEKENEW] |  | 1360 ± 10 |

The remaining binders from weak to strong by Kd (His-PP1γ [1]), led by results:

| Kd (His-PP1γ [1]) [nM] | Kd (His-PP1γ [2]) [nM] | Binder |
| --- | --- | --- |
| 190 ± 10 |  | AKNSRVTFSEDDEIW [Nipp1 197-209 peptide AKNSRVTFSEDDEIW] |
| 120 ± 10 |  | KLNSKRVSFKLPKDQW (KNL1 (CASC5) 1441-1455 by the label; also called CASC5; source: synthetic peptide, bought: Peptide 2.0 Inc) [KNL1 1441-1455 peptide KLNSKRVSFKLPKDQW] |
